Reference: patent US20250355001A1, “METHOD FOR DETECTING A TAU PROTEIN FRAGMENT IN A SAMPLE” (GTINVENT LIMITED, priority 2022, published 2025)

Columns and labels:
[1] = test system: 13 aa tau peptides of hT40; assay: Alanine scanning mutagenesis (ASM) peptide ELISA; type: binding, human; settings: alanine substituted peptides; numbering SEQ ID NO: 1
htau40 = target: T1, htau40 (Homo sapiens, UniProt P10636); assay: Biacore X100 SPR kinetics of anti-tau mAbs on immobilised htau40; type: binding
T1 construct: Full length tau (hT40)
T1 sequence (P10636 1-441 isoform P10636-8): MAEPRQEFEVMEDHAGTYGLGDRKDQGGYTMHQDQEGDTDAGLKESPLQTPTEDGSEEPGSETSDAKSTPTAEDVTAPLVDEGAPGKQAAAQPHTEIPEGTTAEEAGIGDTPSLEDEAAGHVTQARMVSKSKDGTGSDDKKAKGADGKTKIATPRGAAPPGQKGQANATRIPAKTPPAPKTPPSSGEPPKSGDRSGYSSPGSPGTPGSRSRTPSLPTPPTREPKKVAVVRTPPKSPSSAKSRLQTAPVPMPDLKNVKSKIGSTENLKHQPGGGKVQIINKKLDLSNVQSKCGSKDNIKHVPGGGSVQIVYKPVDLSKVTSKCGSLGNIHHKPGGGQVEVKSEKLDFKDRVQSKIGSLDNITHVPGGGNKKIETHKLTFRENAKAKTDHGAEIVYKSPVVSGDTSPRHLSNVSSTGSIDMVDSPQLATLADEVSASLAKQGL
How it was run: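 Htau40 amine-coupled to CM5 chip (~250 RU, pH 4.0 immobilisation), reference flow cell subtracted; mAb injected at 0.78–25 nM in HBS-EP+, 120 s association, 600 s dissociation, glycine pH 1.5 regeneration. Kinetic and affinity constants from 1:1 binding model fit.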

dGAE aggregates = dGAE aggregates (Homo sapiens, UniProt P10636); assay: Epitope occlusion assay: dGAE aggregation with/without LMTM, 423 mAb capture ELISA; type: biochemical; settings: total and supernatant samples; 423 mAb capture
dGAE aggregates, sequence (P10636 614-708): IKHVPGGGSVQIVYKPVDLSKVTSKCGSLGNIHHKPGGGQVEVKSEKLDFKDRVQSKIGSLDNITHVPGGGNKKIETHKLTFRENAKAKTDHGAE
Protocol: During dGAE aggregation in vitro, scAb binding regions on dGA/dGAE are ‘hidden’ or ‘occluded’ which leads to a loss of immunoreactivity in aggregation samples. Here we have shown the occlusion of binding regions in aggregated dGAE samples and the recovery of immunoreactivity in the presence of LMTM, a tau-aggregation inhibitor. For preparing the aggregates, 10 μl 10 mM DTT was added to 1000 μl 100 μM dGAE and agitated with/without LMTM (1:5 ratio) at 700 rpm for 24 h at 37° C. Following overnight agitation, one third of each sample was kept aside as ‘total’ and the rest was spun down at 16000×g for 30 min and separated into ‘supernatant’ and ‘pellet’. The pellet was then resuspended in half the original volume for further experiments. […] Doubling dilutions of dGAE aggregate ‘total’, ‘supernatant’ and ‘pellet’ samples at 10 μg/ml starting concentration were added to designated wells in doubling dilutions in 1×PBS. dGAE monomer (non-aggregated) was included as assay control. All double dilutions were done in final volumes of 100 μl. This was left to incubate on lab bench for 1 h followed by the addition of test scAbs at 10 μg/ml. Anti-HuCk HRP labelled secondary antibody was added as described previously and ELISA data generated is represented using the graph below.

aggregated dGAE = aggregated dGAE (Homo sapiens, UniProt P10636); assay: Capture ELISA ranking mAbs for capture of dGAE aggregates; type: binding; settings: capture mAb 1 μg/ml; 800 nM aggregated dGAE
aggregated dGAE, sequence (P10636 614-708): as above
Protocol: The aggregation cascade of natively unfolded tau into insoluble filaments is a defining pathological feature of AD. Therefore, it is logical to target aggregated tau filaments for both therapeutic and diagnostic purposes. The following experiment was performed to assess the ability of our dGA mAb panel to bind aggregated dGAE using a capture ELISA method. Aggregates were prepared by incubating 100 μM dGAE and 10 mM dTT for 24 h at 37° C. with shaking at 700 RPM. The following day, dGAE aggregates were centrifuged at 17,000×g for 20 min and the supernatant was removed. The remaining pellet was washed with 10 mM phosphate buffer and centrifuged as above. Washing was repeated a further two times to remove any remaining dGAE monomer. The dGAE pellet was resuspended in 100 μl of 10 mM phosphate buffer. (Using a separate capture ELISA based quantification, we have worked out the efficiency of our dGAE aggregation as 80%)
Following washing, 800 nM aggregated dGAE was added to the designated wells, double diluted across the plate and incubated for 1 h at RT. The plate was washed again and 1 μg/ml S1G2 scAb was added as detection antibody and incubated for 1 h at RT. To the row where S1G2 mAb was used for capture, […] s1D12 scAb was added as […] instead of S1G2. The assay was developed using HRP labelled HuCK as described previously.

[2] = Table 27, mAb format, immobilised htau40
[3] = second Table 25, newly converted mAbs, hT40

| Molecule | critical binding residues [1] | ka (htau40; [2]) | kd (htau40; [2]) | ka (htau40; [3]) | kd (htau40; [3]) | immunoreactivity to dGAE aggregation samples prepared in the presence of LMTM (dGAE aggregates) | Kd (htau40; as quoted in Example 32, read-out: affinity) | ability to capture dGAE aggregates (aggregated dGAE) |
| --- | --- | --- | --- | --- | --- | --- | --- | --- |
| CE2: anti-tau core clone, Table 10; SEQ ID NO: 366 (protein, CE2/E1B8 amino acid sequence) scFv: QVQLQESGPSLVKPSQTLSLTCTVSGFSLTNYPVGWVRQAPGKALEWIGNIENDGSANYASALKSRLSITRDTSKNQVSLSLSSATTEDTAVYYCGREFGGSDGYTYFVDIDYWGPGLLVTVSSEGKSSGASGESKVDDQAVLTQPSSVSKSLGQSVSITCSGSSSNVGYGNYVSWFQQVPGSAPKILIYGATSRASGVPDRFSGSRSGNTATLTITSLQAEDEADYYCASYDGSSSGVFGSGTRLTVLG | 323 (G), 324 (S), 325 (L), 326 (G), 327 (N) and/or 328 (I) | 457900 M⁻¹ s⁻¹ | 0.005218 s⁻¹ | 323800 M⁻¹ s⁻¹ | 0.001367 s⁻¹ | increase in immunoreactivity | – | – |
| S1D12: sheep-derived anti-tau core clone; scFv SEQ ID NO: 32, VH 443, VL 444 (protein, S1D12 amino acid sequence) scFv: QVQLQESGPSLVKPSQTLSLTCTVSGFSLNNNAVGWVRQAPGKVPESLVGCSSDGTCYYNSALKSRLDITRDTSKNQISLSLSSVTTDDAAVYYCTRGHYSIYGYDYLGTIDYWGPGLLVTVSSEGKSSGASGESKVDDQAVLTQPSSVSGSLGQRVSITCSGSSSNVGGGNSVGWYQHLPGSGLKTIIYDTNSRPSGVPDRFSGSRSGNTATLTINSLQAEDEGDYYCVTGDSTTHDDLVGSGTRLTVLG | 343 (K), 346 (F) and/or 349 (R) | 405800 M⁻¹ s⁻¹ | 4.093e-05 s⁻¹ | – | – | increase in immunoreactivity | 0.12 nM | most efficient at capturing aggregated dGAE |
| S1G2: sheep-derived anti-tau core clone; scFv SEQ ID NO: 81, VH 455, VL 456 (protein, S1G2 amino acid sequence) scFv: QVQLQESGPSLVKPSQTLSLTCTVSGFSLTSNSVGWVRQAPGKAPEWVAGIDTDGEEGYNPALNSRLSITRDTSKSQVSLSLSSVTSEDTAVYYCGRSYRADGLAYGYVQAIDYWGPGLLVTVSSEGKSSGASGESKVDDQAVVTQPSSVSGSLGQRVSITCSGSFIGISSVGWFQQLPGSGLRTIIVASDGRPSGVPDRFSMSKSGNTATLTISSLQAEDEADYFCGSSDRTPYTGVFGSGTRLTVLG | – | 339800 M⁻¹ s⁻¹ | 4.748e-05 s⁻¹ | – | – | – | – | most efficient at capturing aggregated dGAE |
